What was measured:
Test in all cases: Steady-state kinetics of peptide cleavage, fluorescence polarisation
Type in all cases: biochemical
Arg-vasopressin = conditions: substrate Arg-vasopressin
How it was run: (§1)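 FP readout: avidin binding to intact FAM/biotin peptide; cleavage quantified vs substrate-only ±avidin controls. Conditions: 1–200 µM substrate, 1–500 nM NEP, HEPES pH 7.4/NaCl/BSA, 37°C, 2–360 min time points. Initial rates by linear regression → Michaelis-Menten → kcat, KM.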

Neurokinin B = conditions: substrate Neurokinin B
How it was run: as §1

ANP = conditions: substrate ANP
How it was run: as §1

Nociceptin = conditions: substrate Nociceptin
How it was run: as §1

Somatostatin 14 = conditions: substrate Somatostatin 14
How it was run: as §1

GLP-1 = conditions: substrate GLP-1
How it was run: as §1

Bradykinin = tested on: Bradykinin
How it was run: as §1

[1] = ratio of wild-type NEP kcat/KM to that of the mutant
[2] = substrate Bradykinin, 37°C, pH 7.4

B1: NEPv: lead variant at round 2, human NEP ectodomain with the two mutations G399V and G714K (protein, UniProt P08473 52-750, looked up, variant G399V G714K)
extracellular domain: YDDGICKSSDCIKSAARLIQNMDATTEPCTDFFKYACGGWLKRNVIPETSSRYGNFDILRDELEVVLKDVLQEPKTEDIVAVQKAKALYRSCINESAIDSRGGEPLLKLLPDIYGWPVATENWEQKYGASWTAEKAIAQLNSKYGKKVLINLFVGTDDKNSVNHVIHIDQPRLGLPSRDYYECTGIYKEACTAYVDFMISVARLIRQEERLPIDENQLALEMNKVMELEKEIANATAKPEDRNDPMLLYNKMTLAQIQNNFSLEINGKPFSWLNFTNEIMSTVNISITNEEDVVVYAPEYLTKLKPILTKYSARDLQNLMSWRFIMDLVSSLSRTYKESRNAFRKALYVTTSETATWRRCANYVNGNMENAVGRLYVEAAFAGESKHVVEDLIAQIREVFIQTLDDLTWMDAETKKRAEEKALAIKERIGYPDDIVSNDNKLNNEYLELNYKEDEYFENIIQNLKFSQSKQLKKLREKVDKDEWISGAAVVNAFYSSGRNQIVFPAGILQPPFFSAQQSNSLNYGGIGMVIGHEITHGFDDNGRNFNKDGDLVDWWTQQSASNFKEQSQCMVYQYGNFSWDLAGGQHLNGINTLGENIADNGGLGQAYRAYQNYIKKNGEEKLLPGLDLNHKQLFFLNFAQVWCGTYRPEYAVNSIKTDVHSPKNFRIIGTLQNSAEFSEAFHCRKNSYMNPEKKCRVW
modifications: extracellular domain
Arg-vasopressin; 37°C, pH 7.4
  Km: 22 ± 3 µM
  kcat: 0.017 ± 0.001 s⁻¹
Arg-vasopressin; [1]
  Fold change in kcat/KM: 510
Neurokinin B; 37°C, pH 7.4
  Km: 22 ± 3 µM
  kcat: 0.42 ± 0.03 s⁻¹
Neurokinin B; [1]
  Fold change in kcat/KM: 48
ANP; 37°C, pH 7.4
  Km: 33 ± 6 µM
  kcat: 0.56 ± 0.05 s⁻¹
ANP; [1]
  Fold change in kcat/KM: 53
Nociceptin; 37°C, pH 7.4
  Km: 63 ± 7 µM
  kcat: 14 ± 0.9 s⁻¹
Nociceptin; [1]
  Fold change in kcat/KM: 2.6
Somatostatin 14; 37°C, pH 7.4
  Km: 32 ± 3 µM
  kcat: 9.1 ± 0.4 s⁻¹
Somatostatin 14; [1]
  Fold change in kcat/KM: 15
GLP-1; 37°C, pH 7.4
  Km: 23 ± 4 µM
  kcat: 0.89 ± 0.07 s⁻¹
GLP-1; [1]
  Fold change in kcat/KM: 3.6
Bradykinin; Aβ1–40 versus bradykinin
  specificity switch in favor of cleavage of Aβ: 6.4×10^4
Bradykinin; [2]
  Km: 37 ± 10 µM
  kcat: 0.0055 ± 0.001 s⁻¹

From paper PMC4121237, “Engineering Neprilysin Activity and Specificity to Create a Novel Therapeutic for Alzheimer’s Disease” (PLoS ONE, 2014)
